US20090221680, “Aptamers that bind thrombin with high affinity” (published 2009)

Legend:
[1] = target: thrombin (alpha-thrombin) (Homo sapiens, UniProt P00734;P00734 P00734:315-363,P00734:364-622); test: filter; 10 nM thrombin
prothrombin = prothrombin (Homo sapiens, UniProt P00734 P00734:44-622); test: filter; 50 nM prothrombin; conditions: tags: Athens Research
Protocol: Dot blot binding assays were performed throughout the selections to monitor the protein binding affinity of the pools. Trace ³²P-labeled RNA was combined with a dilution series of human Thrombin (1 nM-1000 nM) and incubated at room temperature for 30 minutes in 1×DPBS (w/ Ca²⁺ and Mg²⁺) (Gibco, Catalog #14040, Invitrogen, Carlsbad, Calif.) plus 0.1 mg/ml BSA in a final volume of 30 μl. The binding reactions were analyzed by nitrocellulose filtration using a Minifold I dot-blot, 96-well vacuum filtration manifold (Schleicher & Schuell, Keene, N.H.). A three-layer filtration medium was used, consisting (from top to bottom) of Protran nitrocellulose (Schleicher & Schuell, Keene, N.H.), Hybond-P nylon (Amersham Biosciences, Piscataway, N.J.) and GB002 gel blot paper (Schleicher & Schuell, Keene, N.H.). RNA that is bound to protein is captured on the nitrocellulose filter, whereas the non-protein bound RNA is captured on the nylon filter. The gel blot paper was included simply as a supporting medium for the other filters. Following filtration, the filter layers were separated, dried and exposed on a phosphor screen (Amersham Biosciences, Piscataway, N.J.) and quantified using a Storm 860 Phosphorimager® blot imaging system (Amersham Biosciences, Piscataway, N.J.).
Based on pool binding monitored throughout the selections as described above, Round 9 Pools from both Selection #2 and #3 were also cloned using a TOPO TA Cloning kit (Invitrogen, Carlsbad, Calif.) according to manufacturer's instructions, and sequenced. Of the 136 sequences obtained from Round 9 of both selections, 130 unique sequences were selected for assaying in a single-point dot blot screen against thrombin and prothrombin to test for selective binding to thrombin. Clones were ordered from IDT (Coralville, Iowa) at 25 μmole synthesis scale. Clone transcripts were 5′ end labeled with γ̅³²P ATP and spin purified with Centrisep columns (Princeton Separations, Adelphia, N.J.) to remove excess label. Trace amounts of labeled clone were incubated with +/−10 nM Thrombin (or +/−50 nM prothrombin) and 0.1 mg/ml BSA in a total volume of 30 μl 1×DPBS (w/ Ca²⁺ and Mg²⁺) (Gibco, Catalog #14040, Invitrogen, Carlsbad, Calif.) for 30 minutes. Post incubation, the binding reaction applied the dot-blot binding assay apparatus previously described.

Row | Binder | binding signal [1] [% bound] | binding signal (prothrombin) [% bound]
1 | TCCCGTCGAGCCGGGGTATGATTATGGGTGGGGTGGCTGAGGATCGATC (ssDNA) [AMX(398)_A9] | 28.3 | 29.7
2 | TCCCGTCGGTCCGTTCGGTATTTTTTTCTGGGTGGCTGAGGATCGATC (ssDNA) [AMX(399)_F10] | 21.3 | 22.1
3 | TCCTGTCGATCGGTACGTTTTCGTTTCTGGGTGGCTGAGGATCGATC (ssDNA) [AMX(398)_C11] | 35.1 | 36.7
4 | TCCCGGTATCGTCATGCTGGTGGAATTGGTTGGGTGGCTGAGGATCGATC (ssDNA) [AMX(399)_G5] | 23.2 | 18.9
5 | TCCCGGAGATCTGAGGTGTTTTATTGGTTTGGGTGGCTGAGGATCGATC (ssDNA) [AMX(399)_H6] | 8.48 | 6.32
6 | TCCCAGATGTGATCCGTATCCTGGTTTGGTTGGGTGGCTGAGGATCGATC (ssDNA) [AMX(398)_B3] | 17.5 | 16.5
7 | TCCCGTTCGGTCCGTATACTGGTGGTGGTTGGGTGGCTGAGGATCGATC (ssDNA) [AMX(399)_F4] | 28.1 | 25
8 | TCCTTGTCGAGCCTTGGGGTAGTGTTGGTTTGGGTGGCTGAGGATCGATC (ssDNA) [AMX(399)_F3] | 9.8 | 8.7
9 | TCCCTGGAGATCCGGGGTAGTATACTGGTTTGGGTGGCTGAGGATCGATC (ssDNA) [AMX(398)_A12] | 35.4 | 37.5
10 | TCCCGTGATCTCTGGGGTAACGTCTTGGTGTGGGTGGCTGAGGATCGATC (ssDNA) [AMX(399)_F1] | 16.7 | 19.4
11 | TCCCGATCGTTTCGTGGGGTAGTGTTGGTTGGGGTGGCTGAGGATCGATC (ssDNA) [AMX(398)_C9] | 20.7 | 20.7
12 | TCCCAATCGAGCCGGGGTTTGTTTGTTCTGGGTGGCTGAGGATCGATC (ssDNA) [AMX(398)_B1] | 31.3 | 32.7
13 | TCCCGATCGGTCCCAAGGGTATTGTTGGTTTGGGTGGCTGAGGATCGATC (ssDNA) [AMX(399)_F7] | 29.6 | 34.2
14 | TCCCATGATTGGCCGGGGTGTCTTTTGGGTCGGGTGGCTGAGGATCGATC (ssDNA) [AMX(398)_C6] | 28 | 11.6
15 | TCCCATCGATTTGGGGTATGTTATGGGCTCGGGTGGCTGAGGATCGATC (ssDNA) [AMX(398)_A6] | 31.1 | 31.3
16 | TCCCATCGGTCCGGGGTAATTTACTGGGTCGGGTGGCTGAGGATCGATC (ssDNA) [AMX(398)_A8] | 40 | 43.9
17 | TCCCGGTTGTCGATTCTGGTATTGTTGGGCTGGGTGGCTGAGGATCGATC (ssDNA) [AMX(399)_H7] | 38.1 | 36.1
18 | TCCCATCGAACCTCGAGGGTATTGTTGGCTTGGGTGGCTGAGGATCGATC (ssDNA) [AMX(399)_G3] | 20.8 | 22.6
19 | TCCCATCGAACCTCGAGGGTATTGTTGGTTTGGGTGGCTGAGGATCGATC (ssDNA) [AMX(399)_H1] | 21.2 | 20.4

Row | Binder | binding signal [1] [% bound] | binding signal (prothrombin) [% bound]
20 | TCCCTATGGATTCGGGGTACGTTAGTTCTGGGTGGCTGAGGATCGATC (ssDNA) [AMX(399)_F11] | 35.1 | 35.7
21 | TCCCTGGTATCGTATCCAAAGGGGTGGTGTGGGTGGCTGAGGATCGATC (ssDNA) [AMX(399)_H8] | 23.3 | 14.3
22 | TCCCTGATCCTTAGGCTAGGTTGGGTGGGGTGGTGGCTGAGGATCGATC (ssDNA) [AMX(398)_B5] | 12.5 | 8.27
23 | TCCCATCGATCTGTGGTGGTTTTGTGGCTTGGGTGGCTGAGGATCGATC (ssDNA) [AMX(399)_G8] | 27.6 | 25.9
24 | TCCCATTGATCTGTGGTGGTTTTGTGGTTTGGGTGGCTGAGGATCGATC (ssDNA) [AMX(398)_A2] | 26.7 | 28.4
25 | TCCCGATTATCCGTTGGTATTGTTGGTCTGGGTGGCTGAGGATCGATC (ssDNA) [AMX(398)_B12] | 20.1 | 20.2
26 | TCCCGAGATCTTTATAGGGTATTGTTGGTTGGGGTGGCTGAGGATCGATC (ssDNA) [AMX(399)_E12] | 20.3 | 25.1
27 | TCCCAAGGATCCGGGGTAGTTAGTGGCTGAGGTGGCTGAGGATCGATC (ssDNA) [AMX(398)_C2] | 0.2 | 0.66
28 | TCCCATCGTCTGTGGTATAGGAACTTCTGGGTGGCTGAGGATCGATC (ssDNA) [AMX(399)_G2] | 18.8 | 7.28
29 | TCCCAACGATCTGTGGTTTTTTTGTTCTGGGTGGCTGAGGATCGATC (ssDNA) [AMX(398)_C1] | 35.8 | 37
30 | TCCCTCGATCTTGGGGTACTATAGTGGTGTGGGTGGCTGAGGATCGATC (ssDNA) [AMX(398)_B10] | 26.8 | 25.7
31 | TCCCGGATCCTCGTGGGTATTGTTGGGTTGGGTGGCTGAGGATCGATC (ssDNA) [AMX(399)_G12] | 40.6 | 41.1
32 | TCCCATCGATCAGTGGTGGCTTGGCTGGTTTGGGTGGCTGAGGATCGATC (ssDNA) [AMX(399)_G6] | 39.7 | 38.6
33 | TCCCGTGAGAGCTGGGGTGTTTATATGGGTCGGGTGGCTGAGGATCGATC (ssDNA) [AMX(399)_G9] | 21.3 | 22.5
34 | TCCCCATCGATCCTGGTCTCTTTTGTTCTGGGTGGCTGAGGATCGATC (ssDNA) [AMX(399)_G11] | 12.8 | 11.8
35 | TCCCTTGATCCTGGTACATATATTTTCTGGGTGGCTGAGGATCGATC (ssDNA) [AMX(399)_F2] | 7.37 | 7.92
36 | TCCCTATCGAGCTGTGGTAGTATTCTGGTTTGGGTGGCTGAGGATCGATC (ssDNA) [AMX(398)_A7] | 26.5 | 25.4
37 | TCCCAAGATCGATGCTGGTAGTGTTTTCTGGGTGGCTGAGGATCGATC (ssDNA) [AMX(399)_F6] | 10 | 11.9
38 | TCCCGCTATTCGATCTTCAATTGGGTGGTCAGGGTGGCTGAGGATCGATC (ssDNA) [AMX(399)_F9] | 25.2 | 26
